Assay [1] concerns the target toposome (major yolk protein) purified from gonads of Paracentrotus lividus collected at the bloom phase (T0) (Paracentrotus lividus (endogenous in gonads)). The assay is described as follows: SEC; gel filtration on Sephacryl S-400 HR (1.8 x 42 cm), Tris-HCl buffer pH 8.0 with 150 mM NaCl, 0.5 ml/min; size by comparison with standards (blue dextran 2,000 kDa, thyroglobulin 669 kDa, apoferritin 443 kDa); apparent molecular weight.

In assay [2] the target is toposome (major yolk protein) purified from gonads of Paracentrotus lividus collected prior to the bloom (C) (Paracentrotus lividus (endogenous in gonads)). Described as above.

As a reminder, the stoichiometry N is a count of units in the complex or per binding partner. Turning to “toposome (major yolk protein) purified from gonads of Paracentrotus lividus collected at the bloom phase (T0) (natural protein)”, the stoichiometry N in assay [1] was 3.

Take “toposome (major yolk protein) purified from gonads of Paracentrotus lividus collected prior to the bloom (C) (natural protein)”: the stoichiometry N in assay [2] is 3.

(Values after paper PMC5854732.)
